Source: patent publication US20260227403A1 (HENRY M JACKSON FOUNDATION FOR THE ADVANCEMENT OF MILITARY …, published 2026)

Tests used:
Test in all cases: ELISA: 1 µg peptide coated per well, 29E4 at 20 ng/mL, HRP goat anti-rabbit Ig 1:16,000, ABS 450 nm, duplicates [CONT. 1]
[1] = target: T1, peptide P40 (…) (human)
T1 construct: N-terminal truncation of the immunogenic peptide P1

[2] = target: T2, P34
T2 construct: C-terminal truncation of P1
T2 peptide: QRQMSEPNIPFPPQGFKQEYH

[3] = target: T3, P35
T3 construct: C-terminal truncation of P1
T3 peptide: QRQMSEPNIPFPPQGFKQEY

[4] = target: T4, P50
T4 construct: C-terminal truncation of P1
T4 peptide: QRQMSEPNIPFPP

[5] = target: T5, P48
T5 construct: C-terminal truncation of P1
T5 peptide: QRQMSEPNIPFPPQG

[6] = target: T6, P49
T6 construct: C-terminal truncation of P1
T6 peptide: QRQMSEPNIPFPPQ

[7] = target: T7, P33
T7 construct: C-terminal truncation of P1
T7 peptide: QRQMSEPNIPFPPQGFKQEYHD

[8] = target: T8, P41
T8 construct: N-terminal truncation of P1
T8 peptide: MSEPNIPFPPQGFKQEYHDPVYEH

[9] = target: T9, P42
T9 construct: N-terminal truncation of P1
T9 peptide: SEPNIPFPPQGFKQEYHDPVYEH

[10] = target: T10, P37
T10 construct: C-terminal truncation of P1
T10 peptide: QRQMSEPNIPFPPQGFKQ

[11] = target: T11, P36
T11 construct: C-terminal truncation of P1
T11 peptide: QRQMSEPNIPFPPQGFKQE

[12] = target: T12, peptide P38 (QRQMSEPNIPFPPQGFK) (human)
T12 construct: C-terminal truncation of the immunogenic peptide P1
T12 peptide: QRQMSEPNIPFPPQGFK

[13] = target: T13, P31
T13 construct: C-terminal truncation of P1
T13 peptide: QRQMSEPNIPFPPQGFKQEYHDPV

[14] = target: T14, P32
T14 construct: C-terminal truncation of P1
T14 peptide: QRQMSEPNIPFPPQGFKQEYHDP

[15] = target: T15, P30
T15 construct: C-terminal truncation of P1

[16] = target: T16, P29
T16 construct: C-terminal truncation of P1

[17] = target: T17, P39
T17 construct: N-terminal truncation of P1

Measured: binding result

B1: ETV1 rabbit monoclonal antibody (29E4) (antibody, V domains shown)
VH: QELEESGGDLVKPGASLTLTCTASGFFFSAENHICWVRQAPGKGLEWIGCVYIGSYVGGSGDPYYASWAKGRFTISKTSSTTVTLQMSSLTAADTATYFCARDLGSLWGPGTLVTVSS
VL: DVVMTQTASSVSAAVGGTVTIACQSSQSVYDNNNLAWFQQKPGQPPKRLIYSASTLASGVSSRFKGSGYGTQFTLTISDVQCDDAATYYCVGAFSGYIFVFGGGTEVVVK
notes: constant regions are not; also called 29E4 mAb; ETV1 29E4 mAb
binds: all assays above
